Test results published in PMC5923319 (Toxins, 2018).

What was measured:
[1] = molecular target: HcA1 (receptor binding domain of BoNT/A1), HA- and His6-tagged, for binding studies (Clostridium botulinum, UniProt A2I2U2 876-1296); experiment: pull-down; conditions: both partners purified
[2] = molecular target: HcA2 (receptor binding domain of BoNT/A2), HA- and His6-tagged, for binding studies (Clostridium botulinum A2 Kyoto-F, UniProt Q45894 874-1296); experiment: […]; Hepes buffer (50 mM Hepes pH 7.5, 150 mM NaCl); […]; conditions: both partners purified

Row | Binder | binding result [1] | binding result [2]
1 | GST-fused recombinant human SV2B-L4 (domain or fragment, UniProt Q7L1I2 410-536, looked up, also called non-glycosylated SV2B) WFPDMIRYFQDEEYKSKMKVFFGEHVYGATINFTMENQIHQHGKLVNDKFTRMYFKHVLFEDTFFDECYFEDVTSTDTYFKNCTIESTIFYNTDLYEHKFINCRFINSTFLEQKEGCHMDLEQDNDF | binds | 
2 | GST-fused recombinant human SV2A-L4 (domain or fragment, UniProt Q7L0J3 468-596, looked up, also called non-glycosylated SV2A) FPDMIRHLQAVDYASRTKVFPGERVEHVTFNFTLENQIHRGGQYFNDKFIGLRLKSVSFEDSLFEECYFEDVTSSNTFFRNCTFINTVFYNTDLFEYKFVNSRLINSTFLHNKEGCPLDVTGTGEGAYM | binds | 
3 | GST-fused recombinant human SV2C-L4 (domain or fragment, UniProt Q496J9 454-580, looked up, also called non-glycosylated SV2C) FPDVIKPLQSDEYALLTRNVERDKYANFTINFTMENQIHTGMEYDNGRFIGVKFKSVTFKDSVFKSCTFEDVTSVNTYFKNCTFIDTVFDNTDFEPYKFIDSEFKNCSFFHNKTGCQITFDDDYSAY | binds | binds
